Measured values as given in article PMC7266990.

Columns and labels:
Details in all cases: SPR per cited protocol (Gsaller 2016; buffer not given), CBC 3.13-200 nM, 1:1 model with mass transport; SEC: 20 mM Tris/HCl, 150 mM NaCl, 1 mM DTT, pH 7.5
[1] = target: Afu_CBC HapE P88L (core) P88L (Aspergillus fumigatus) (UniProt Q4WDM9); assay: SPR
[2] = target: Afu_CBC HapE P88L (SPR co-injection construct);HapX bZIP peptide P88L (Aspergillus fumigatus;Aspergillus fumigatus) (UniProt Q4WDM9+Q4WER3); assay: SPR co-injection
[3] = target: An_CBC HapE P88L (Aspergillus nidulans) (UniProt G5EAZ0+Q5B5Z6+Q5AYY8); assay: SPR
[4] = target: An_CBC wt (HapB/HapC/HapE core) (Aspergillus nidulans) (UniProt G5EAZ0+Q5B5Z6+Q5AYY8); assay: SPR

Sequence | Kd [1] [nM] | binding signal (fold half-life vs binary P88L CBC-DNA) [2] | Kd [3] [nM] | Kd [4] [nM]
AAATCCACCAATCAACGCCTCCGTG (double strand) [Afu_cccA 25 bp SPR duplex] | 429 |  |  | 
AAATCCACCAATCAACGCCTCCGTGATTGTCAGCAAT (double strand) [Afu_cccA SPR co-injection duplex (CBC and HapX sites)] |  | 7 |  | 
ACCCGAGCCAATCAGAGCGAAGTGA (double strand) [An_cccA 25 bp SPR duplex] | 2000 |  | 2000 | 
GAATTGACCAATCAGAGGTAGGATG (double strand) [An_cycA 25 bp SPR duplex] | 100 |  | 116 | 0.83
